Assay in all cases: fluorescence anisotropy; FA: 20 mM HEPES-NaOH pH 7.5, 100 mM NaCl, 10% glycerol, 20 C, 10 nM FAM-RNA; competition: 150 nM Egl512-819 + 10 nM FAM-K10 TLS, same buffer
What all share (conditions): protein: recombinant; tags: N-terminal GST; label: 5'-6-FAM; hairpin with two bulges

The target in one data set is T1, Egl512-1004 (Drosophila melanogaster, UniProt Q9W1K4 512-1004).
T1 sequence: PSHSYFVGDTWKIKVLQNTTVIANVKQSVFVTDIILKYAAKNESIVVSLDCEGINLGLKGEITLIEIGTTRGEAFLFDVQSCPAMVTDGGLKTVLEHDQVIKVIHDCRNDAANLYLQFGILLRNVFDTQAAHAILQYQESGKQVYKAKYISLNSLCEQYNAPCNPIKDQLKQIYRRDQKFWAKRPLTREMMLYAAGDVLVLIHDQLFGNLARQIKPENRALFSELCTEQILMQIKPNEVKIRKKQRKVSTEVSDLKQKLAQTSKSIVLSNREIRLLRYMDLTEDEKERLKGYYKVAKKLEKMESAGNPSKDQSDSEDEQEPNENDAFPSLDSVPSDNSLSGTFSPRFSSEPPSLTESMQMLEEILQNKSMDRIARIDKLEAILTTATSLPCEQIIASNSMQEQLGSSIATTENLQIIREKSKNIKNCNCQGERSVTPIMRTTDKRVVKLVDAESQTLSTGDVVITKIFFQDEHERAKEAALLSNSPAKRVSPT

Another data set concerns the target T2, R782A (Drosophila melanogaster, UniProt Q9W1K4 512-819, R782A).
T2 sequence: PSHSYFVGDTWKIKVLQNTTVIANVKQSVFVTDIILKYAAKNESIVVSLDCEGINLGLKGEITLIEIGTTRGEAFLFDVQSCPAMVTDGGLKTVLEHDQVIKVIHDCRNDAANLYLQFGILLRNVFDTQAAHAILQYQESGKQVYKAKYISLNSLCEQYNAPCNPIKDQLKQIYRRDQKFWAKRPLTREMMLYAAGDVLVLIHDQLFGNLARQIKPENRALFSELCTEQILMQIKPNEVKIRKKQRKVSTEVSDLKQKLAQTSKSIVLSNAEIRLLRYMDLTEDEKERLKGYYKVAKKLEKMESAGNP

The target in a further data set is T3, K659E/K754E (Drosophila melanogaster, UniProt Q9W1K4 512-819, K659E;K754E).
T3 sequence: T2 sequence with K148E, K243E, A271R

Another data set has as its target T4, K755E (Drosophila melanogaster, UniProt Q9W1K4 512-819, K755E).
T4 sequence: T2 sequence with K244E, A271R

Broadly, the Kd is the free concentration of one partner at which half of the binding sites on the other are occupied at equilibrium, for simple one-to-one binding.

Positions count from the first letter of the chain named.

As to CUUGAUUGUAUUUUUAAAUUAAUUCUUAAAAACUACAAAUUAAG (structured_RNA) [K10 TLS (FAM)], the Kd with Egl512-1004 amounted to 144 ± 6 nM; with R782A it was 284 ± 13 nM; with K659E/K754E, 433 ± 42 nM; in the data set with K755E, 133 ± 2 nM.

(Values after article doi:10.1101/2025.08.03.668247, “The structure of Egalitarian in complex with the K10 mRNA localization signal reveals a modular binding surface required for function”.)
